From publication PMC6683420 (BMC Molecular and Cell Biology, 2019)

Columns and labels:
[1] = target: T1, human CD40 (human, UniProt P25942); assay: cell-based or functional assay
[2] = target: T1, human CD40; assay: cell-based or functional assay; remark: listed apart in the source

T1 sequence (P25942 21-277): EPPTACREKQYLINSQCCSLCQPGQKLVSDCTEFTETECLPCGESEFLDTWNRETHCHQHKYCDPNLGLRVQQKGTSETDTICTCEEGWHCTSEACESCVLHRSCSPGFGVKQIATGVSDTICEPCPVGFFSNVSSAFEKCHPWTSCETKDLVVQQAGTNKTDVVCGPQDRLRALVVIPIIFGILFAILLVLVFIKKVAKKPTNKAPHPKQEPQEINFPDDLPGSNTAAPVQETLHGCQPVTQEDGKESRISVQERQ

Binder | EC50 of antagonist activity in the CD40-dependent NF-kB SEAP reporter assay (HEK-293 transfected with human CD40, stimulated with recombinant CD40L); blocks m8 with m7 [1] [nM] | EC50 of inhibition of CD86 upregulation on primary human B cells stimulated with CD40L-expressing Jurkat cells; blocks m8 with m7 [1] [nM] | Antagonist: Jurkat/ Reporter assay IC50 nM; blocks m8 with m7 [2] [nM] | Agonist: huCD40 reporter assay IC50 [2] [nM]
ABBV-323 (ravagalimab), human IgG1/κ anti-CD40 antagonist mAb (antibody, V domains shown) VH: EVQLVESGGGLVKPGGSLRLSCAASGFTFSDYGMNWVRQAPGKGLEWIAYISSGRGNIYYADTVKGRFTISRDNAKNSLYLQMNSLRAEDTAVYYCARSWGYFDVWGQGTTVTVSS VL: DIVMTQSPDSLAVSLGERATINCKSSQSLLNRGNQKNYLTWFQQKPGQPPKLLIYWASTRESGVPDRFSGSGSGTDFTLTISSLQAEDVAVYYCQNDYTYPLTFGQGTKLEIK | 3.7 | 0.6 | 3.1 | 
FAB516, anti-CD40 agonist antibody variant of ABBV-323 (antibody, V domains shown) VH: EVQLVESGGGLVKPGGSLRLSCAASGFTFSDYGMNWVRQAPGKGLEWVSYISSGRSNIYYADTVKGRFTISRDNAKNSLYLQMNSLRAEDTAVYYCARSWGYFDVWGQGTTVTVSS VL: DIVMTQSPDSLAVSLGERATINCKSSQSLLNLGNQKNYLTWFQQKPGQPPKLLIYWASTRESGVPDRFSGSGSGTDFTLTISSLQAEDVAVYYCQNDYTYPLTFGQGTKLEIK |  |  |  | 157
